Test results from patent publication EP2402371A1.
Changes are numbered by the printed parent chain. Each block holds one binder with its values, some of them ahead of it.

Biological target: extracellular domain of human GPVI (human) (UniProt Q9HCN6)
Assay: SPR (Biacore 3000), human GPVI immobilised by amine coupling, Fab as analyte

B1: humanized anti-GPVI Fab VL1/VH1 (Fab, V domains shown)
VH: QVQLQESGPGLVAPSQSLSITCTVSGFSLTGYGVNWVRQPPSRGLEWLGMIWGDGSTDYQSTLKSRLSISKDTSKSQVFLKMNSLTTDDTARYYCARDLPMDYWGQGTSVTVSS
VL: DIQMTQSPSSLSASVGGRVTITCKASQDINKYIAWYQHKPGKGPSLLIHYTSTLQPGVPSRFSGSGSGRDYSFSISNLQPEDIATYYCLQYANLLTFGGGTKLEIKR
Kd: 400 pM | koff: 4e-05 s⁻¹ | kon: 111000 M⁻¹ s⁻¹

B4: humanized anti-GPVI Fab VL3/VH4 (Fab, V domains shown)
VH: B1 VH with G31Y, T73N
VL: B1 VL with N93L
Kd: 300 pM | koff: 4e-05 s⁻¹ | kon: 151000 M⁻¹ s⁻¹

B5: humanized anti-GPVI Fab VL1/VH3 (Fab, V domains shown)
VH: B1 VH with Q1E, Q5L, Q16G, S42G, R43K, T73N, T86R, Q106L
VL: B1 VL
Kd: 100 pM | koff: 2e-05 s⁻¹ | kon: 148000 M⁻¹ s⁻¹

B7: humanized anti-GPVI Fab VL1/VH5 (Fab, V domains shown)
VH: B1 VH with T73N, Y103E
VL: B1 VL
Kd: 400 pM | koff: 3e-05 s⁻¹ | kon: 81000 M⁻¹ s⁻¹

B8: humanized anti-GPVI Fab VL1/VH4 (Fab, V domains shown)
VH: B1 VH with G31Y, T73N
VL: B1 VL
Kd: 200 pM | koff: 2e-05 s⁻¹ | kon: 124000 M⁻¹ s⁻¹

Results, then the binder that gave them:

Kd: 300 pM | koff: 3e-05 s⁻¹ | kon: 108000 M⁻¹ s⁻¹
B2: humanized anti-GPVI Fab VL2/VH2 (Fab, V domains shown)
VH: B1 VH with T73N
VL: B1 VL with N93H

Kd: 200 pM | koff: 3e-05 s⁻¹ | kon: 113000 M⁻¹ s⁻¹
B3: humanized anti-GPVI Fab VL1/VH2 (Fab, V domains shown)
VH: B1 VH with T73N
VL: B1 VL

Kd: 200 pM | koff: 3e-05 s⁻¹ | kon: 132000 M⁻¹ s⁻¹
B6: humanized anti-GPVI Fab VL3/VH2 (Fab, V domains shown)
VH: B1 VH with T73N
VL: B1 VL with N93L
